Experimental data: US20180327501A1 (CARSGEN THERAPEUTICS, published 2018)

B1: M14/CD3 single chain bifunctional antibody (bispecific antibody, part only; not given: linker, anti-CD3 scFv, His tag, not shown: another chain or arm of the molecule)
chain: DIQMTQSPSSLSASVGDRVTITCHASQDINSNIGWLQQKPGKAFKGLIYHGKNLEDGVPSRFSGSGSGTDFTLTISSLQPEDFATYYCNQYENNPITFGQGTKVEIKRGGGGSGGGGSGGGGSDVQLVESGGGLVQPGGSLRLSCAVSGYSITSDYAWNWIRQAPGKGLEWLGYISYRGRTNYNPSLKSRISITRDNSKNTFFLQLNSLRAEDTAVYYCARLGRGFRYWGQGTLVTVSS
B2: S22/CD3 single chain bifunctional antibody (bispecific antibody, part only; not given: linker, anti-CD3 scFv, His tag, not shown: another chain or arm of the molecule)
chain: DIQMTQSPSSLSASVGDRVTITCHASQDINVNIGWLQQKPGKAFKGLIYHGTNLEDGVPSRFSGSGSGTDFTLTISSLQPEDFATYYCNQYENNPLTFGQGTKVEIKRGGGGSGGGGSGGGGSDVQLVESGGGLVQPGGSLRLSCAVSGYSITSDYAWNWIRQAPGKGLEWLGYISYRGRTRYNPSLKSRISITRDNSKNTFFLQLNSLRAEDTAVYYCARLGRGFRYWGQGTLVTVSS
B3: M15/CD3 single chain bifunctional antibody (bispecific antibody, part only; not given: linker, anti-CD3 scFv, His tag, not shown: another chain or arm of the molecule)
chain: DIQMTQSPSSLSASVGDRVTITCHASQDINVNIGWLQQKPGKAFKGLIYHGKNLEDGVPSRFSGSGSGTDFTLTISSLQPEDFATYYCNQYENNPITFGQGTKVEIKRGGGGSGGGGSGGGGSDVQLVESGGGLVQPGGSLRLSCAVSGYSITSDYAWNWIRQAPGKGLEWLGYISYRGRTSYNPSLKSRISITRDNSKNTFFLQLNSLRAEDTAVYYCARLGRGFRYWGQGTLVTVSS
B4: S8/CD3 single chain bifunctional antibody (bispecific antibody, part only; not given: linker, anti-CD3 scFv, His tag, not shown: another chain or arm of the molecule)
chain: DIQMTQSPSSLSASVGDRVTITCHASQDINVNIGWLQQKPGKSFKGLIYHGKNLEDGVPSRFSGSGSGTDFTLTISSLQPEDFATYYCNQYENNPITFGQGTKVEIKRGGGGSGGGGSGGGGSDVQLVESGGGLVQPGGSLRLSCAVSGYSITSDYAWNWIRQAPGKGLEWLGYISYRGRTSYNPSLKSRISITRDNSKNTFFLQLNSLRAEDTAVYYCARLGRGFRYWGQGTLVTVSS
B5: S29/CD3 single chain bifunctional antibody (bispecific antibody, part only; not given: linker, anti-CD3 scFv, His tag, not shown: another chain or arm of the molecule)
chain: DIQMTQSPSSLSASVGDRVTITCHASQDINVNIGWLQQKPGKAFKGLIYHGKNLEDGVPSRFSGSGSGTDFTLTISSLQPEDFATYYCNQYENFPLTFGQGTKVEIKRGGGGSGGGGSGGGGSDVQLVESGGGLVQPGGSLRLSCAVSGYSITSDYAWNWIRQAPGKGLEWLGYISYRGRTRYNPSLKSRISITRDNSKNTFFLQLNSLRAEDTAVYYCARLGRGFRYWGQGTLVTVSS
B6: S7/CD3 single chain bifunctional antibody (bispecific antibody, part only; not given: linker, anti-CD3 scFv, His tag, not shown: another chain or arm of the molecule)
chain: DIQMTQSPSSLSASVGDRVTITCHASQDINVNIGWLQQKPGKAFKGLIYHGTNLEDGVPSRFSGSGSGTDFTLTISSLQPEDFATYYCNQYENNPITFGQGTKVEIKRGGGGSGGGGSGGGGSDVQLVESGGGLVQPGGSLRLSCAVSGYSITSDYAWNWIRQAPGKGLEWLGYISYRGRTSYNPSLKSRISITRDNSKNTFFLQLNSLRAEDTAVYYCARLGRGFRYWGQGTLVTVSS
B7: S23/CD3 single chain bifunctional antibody (bispecific antibody, part only; not given: linker, anti-CD3 scFv, His tag, not shown: another chain or arm of the molecule)
chain: DIQMTQSPSSLSASVGDRVTITCHASQDINVNIGWLQQKPGKSFKGLIYHGKNLEDGVPSRFSGSGSGTDFTLTISSLQPEDFATYYCNQYENNPLTFGQGTKVEIKRGGGGSGGGGSGGGGSDVQLVESGGGLVQPGGSLRLSCAVSGYSITSDYAWNWIRQAPGKGLEWLGYISYRGRTRYNPSLKSRISITRDNSKNTFFLQLNSLRAEDTAVYYCARLGRGFRYWGQGTLVTVSS
B8: S17/CD3 single chain bifunctional antibody (bispecific antibody, part only; not given: linker, anti-CD3 scFv, His tag, not shown: another chain or arm of the molecule)
chain: DIQMTQSPSSLSASVGDRVTITCHASQDINTNIGWLQQKPGKAFKGLIYHGKNLEDGVPSRFSGSGSGTDFTLTISSLQPEDFATYYCNQYENNPLTFGQGTKVEIKRGGGGSGGGGSGGGGSDVQLVESGGGLVQPGGSLRLSCAVSGYSITSDYAWNWIRQAPGKGLEWLGYISYRGRTQYNPSLKSRISITRDNSKNTFFLQLNSLRAEDTAVYYCARLGRGFRYWGQGTLVTVSS
B9: M25/CD3 single chain bifunctional antibody (bispecific antibody, part only; not given: linker, anti-CD3 scFv, His tag, not shown: another chain or arm of the molecule)
chain: DIQMTQSPSSLSASVGDRVTITCHASQDINVNIGWLQQKPGKAFKGLIYHGKNLEDGVPSRFSGSGSGTDFTLTISSLQPEDFATYYCNQYENIPLTFGQGTKVEIKRGGGGSGGGGSGGGGSDVQLVESGGGLVQPGGSLRLSCAVSGYSITSDYAWNWIRQAPGKGLEWLGYISYRGRTRYNPSLKSRISITRDNSKNTFFLQLNSLRAEDTAVYYCARLGRGFRYWGQGTLVTVSS
B10: M26/CD3 single chain bifunctional antibody (bispecific antibody, part only; not given: linker, anti-CD3 scFv, His tag, not shown: another chain or arm of the molecule)
chain: DIQMTQSPSSLSASVGDRVTITCHASQDINVNIGWLQQKPGKAFKGLIYHGKNLEDGVPSRFSGSGSGTDFTLTISSLQPEDFATYYCNQYENIPLTFGQGTKVEIKRGGGGSGGGGSGGGGSDVQLVESGGGLVQPGGSLRLSCAVSGYSITSDYAWNWIRQAPGKGLEWLGYISYRGRTQYNPSLKSRISITRDNSKNTFFLQLNSLRAEDTAVYYCARLGRGFRYWGQGTLVTVSS
B11: scFv-Y022-Fc (Fc fusion)
chain: DIQMTQSPSSLSASVGDRVTITCHASQDINVNIGWLQQKPGKAFKGLIYHGKNLEDGVPSRFSGSGSGTDFTLTISSLQPEDFATYYCNQYENIPLTFGQGTKVEIKRGGGGSGGGGSGGGGSDVQLVESGGGLVQPGGSLRLSCAVSGYSITSDYAWNWIRQAPGKGLEWLGYISYRGRTQYNPSLKSRISITRDNSKNTFFLQLNSLRAEDTAVYYCARMGKNWDYWGQGTLVTVSS
notes: Expressed in HEK-293F cells, protein A purified; also called single chain antibody Y022; V5-scFv-Y022-Fc; not shown: Fc fragment of human IgG1 from vector pCMV-V5-Fc, fused downstream of the multiple cloning site; limits and junction res
B12: single chain antibody Y022 displayed on phage (scFv)
scFv: DIQMTQSPSSLSASVGDRVTITCHASQDINVNIGWLQQKPGKAFKGLIYHGKNLEDGVPSRFSGSGSGTDFTLTISSLQPEDFATYYCNQYENIPLTFGQGTKVEIKRGGGGSGGGGSGGGGSDVQLVESGGGLVQPGGSLRLSCAVSGYSITSDYAWNWIRQAPGKGLEWLGYISYRGRTQYNPSLKSRISITRDNSKNTFFLQLNSLRAEDTAVYYCARMGKNWDYWGQGTLVTVSS
notes: 12 mutations against 7B3; not shown: fusion to M13 phage coat protein from phagemid pCANTAB 5E (pCantab 5E-Y022)
B13: antibody 7B3, single chain antibody with carboxy-terminal 6xhistidine, produced in E. coli (scFv)
scFv: DIQMTQSPSSLSASVGDRVTITCHASQDINSNIGWLQQKPGKAFKGLIYHGKNLEDGVPSRFSGSGSGTDFTLTISSLQPEDFATYYCVQYAQFPYTFGQGTKVEIKRGGGGSGGGGSGGGGSDVQLVESGGGLVQPGGSLRLSCAVSGYSITSDYAWNWIRQAPGKGLEWLGYISYRGRTSYNPSLKSRISITRDNSKNTFFLQLNSLRAEDTAVYYCARLGRGFRYWGQGTLVTVSSHHHHHH
B14: antibody Y022, single chain antibody with carboxy-terminal 6xhistidine, produced in E. coli (scFv)
scFv: DIQMTQSPSSLSASVGDRVTITCHASQDINVNIGWLQQKPGKAFKGLIYHGKNLEDGVPSRFSGSGSGTDFTLTISSLQPEDFATYYCNQYENIPLTFGQGTKVEIKRGGGGSGGGGSGGGGSDVQLVESGGGLVQPGGSLRLSCAVSGYSITSDYAWNWIRQAPGKGLEWLGYISYRGRTQYNPSLKSRISITRDNSKNTFFLQLNSLRAEDTAVYYCARMGKNWDYWGQGTLVTVSSHHHHHH

Key:
[1] = molecular target: T1, EGFRvIII on U87-EGFRvIII cells (human, UniProt P00533 25-1210); assay: FACS on U87MG-EGFRvIII cells, method of Example 9; PBS control 1
T1 construct: whole, on cells; EGFRvIII is a deletion variant of it; also called U87MG-EGFRvIII; mutant human EGFR

[2] = molecular target: EGFR on the cell surface (human) (UniProt P00533); assay: FACS on CAL 27 cells, method of Example 9; PBS control 3.11
[3] = molecular target: T1, EGFRvIII on U87-EGFRvIII cells; assay: FACS on U87-EGFRvIII cells, 20 µg/ml
Description: 2) Cells were digested with 10 mM EDTA and cells were collected by centrifugation at 200 g for 5 min. Cells were resuspended in 1% phosphate buffered saline (NBS PBS) containing calf serum at a concentration of 1×10⁶ to 1×10⁷/mL, and added in a flow tube in an amount of 100 μl/tube.
And PBS was used as a negative control. The final concentration of antibody was 20 μg/ml, 100 μl was added to each tube and placed in an ice bath for 45 minutes.

[4] = molecular target: T2, N1N2 (control protein) (M13 phage, UniProt P69168 19-235, limits assumed); assay: single phage ELISA, 100 ng/well coated protein
T2 construct: domain: N1N2 domain; Negative control protein in the phage ELISA
T2 sequence (P69168 19-235 limits assumed): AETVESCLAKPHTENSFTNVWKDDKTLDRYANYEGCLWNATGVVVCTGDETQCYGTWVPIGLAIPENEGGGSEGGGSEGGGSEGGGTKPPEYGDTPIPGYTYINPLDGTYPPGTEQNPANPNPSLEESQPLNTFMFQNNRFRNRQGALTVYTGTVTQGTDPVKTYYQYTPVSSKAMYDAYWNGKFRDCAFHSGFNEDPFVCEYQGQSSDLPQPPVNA
Description: (§1) Each well was blocked with PBST containing 2% BSA (w/v). The wells were then washed with PBST for three times. Then, each phage solution prepared above was added to each well of the plate at 100 μl/well. After incubation for 2 hours at 37° C., it was washed for three times with PBST. To detect bound phage, anti-M13 antibody […] conjugate (purchased from GE Healthcare) was diluted at 1:5000 in PBST and 100 μl was added to each well. After incubating at 37° C. for 1 hour, the wells were rinsed for three times with PBST and then rinsed for three times with PBS. Finally, 50 μl of TMB substrate was added into the wells and developed for 10 minutes at room temperature, followed by addition of 50 μl of 2M H₂SO₄ per well to stop the color reaction. Extinction values were measured at 450 nm with an enzyme-linked immunosorbent (Bio-Rad).
(§2) All of the altered amino acid positions include S31 in the light chain CDR1 region, V89, A92, Q93, F94 and Y96 in the light chain CDR3 region, 5182 in the heavy chain CDR2 region, L222, R224, G225, F226 and R227 in the heavy chain CDR3 region.

[5] = molecular target: T3, BSA (bovine serum albumin) (bovine, UniProt P02769 25-607); assay: single phage ELISA, 100 ng/well coated protein
T3 construct: Negative control protein in the phage ELISA
T3 sequence (P02769 25-607 limits assumed): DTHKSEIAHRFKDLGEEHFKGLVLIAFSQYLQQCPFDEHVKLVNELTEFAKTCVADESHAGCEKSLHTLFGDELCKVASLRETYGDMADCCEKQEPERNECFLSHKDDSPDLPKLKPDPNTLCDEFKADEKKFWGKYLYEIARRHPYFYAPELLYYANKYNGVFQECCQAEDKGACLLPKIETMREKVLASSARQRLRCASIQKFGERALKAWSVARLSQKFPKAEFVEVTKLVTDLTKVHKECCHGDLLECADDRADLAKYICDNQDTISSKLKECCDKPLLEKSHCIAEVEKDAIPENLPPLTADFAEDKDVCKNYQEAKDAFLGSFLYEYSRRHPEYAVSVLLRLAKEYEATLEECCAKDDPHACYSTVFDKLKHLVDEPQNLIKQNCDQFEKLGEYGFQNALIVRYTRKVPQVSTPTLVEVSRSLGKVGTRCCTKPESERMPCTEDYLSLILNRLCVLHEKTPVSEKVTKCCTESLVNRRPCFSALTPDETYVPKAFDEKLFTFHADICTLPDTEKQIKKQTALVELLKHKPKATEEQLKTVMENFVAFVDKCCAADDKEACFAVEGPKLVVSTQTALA
Description: as §1, §2

[6] = molecular target: T4, antigen EGFRvIII (purchased protein) (UniProt P00533 25-645, limits assumed); assay: concentration gradient ELISA, EGFRvIII coated 200 ng/well, anti-His-tag detection, non-linear fit
T4 construct: also called EGFRvIII antigen; biotin-labeled antigen EGFRvIII
Description: Binding activity of an antibody to antigen EGFRvIII was determined by concentration gradient ELISA assay. For this purpose, the antigen EGFRvIII was diluted with 0.1 M NaHCO₃ (pH 9.6) coating solution and each well was coated with 200 ng at 50 μl/well overnight at 4° C. and blocked with PBST containing 2% (w/v) BSA for 2 hours at room temperature. The plate was then rinsed for three times with PBST. […] After incubation for 2 hours at 37° C., plate was rinsed for three times with PBST followed by adding 100 μl/well of a 1:2000 dilution of mouse anti-His-tag antibody (available from Santa cruz) for 1 hour at 37° C. To test the bound antibody, HRP-labeled goat anti-mouse antibody (purchased from Santa Cruz) was diluted in PBST at a 1:15,000 dilution and 100 μl per well was added and incubated at 37° C. for 1 hour. […] The chromogenic reaction was stopped with 50 μl of 2 M H₂SO₄ per well and extinction value was measured at 450 nm using enzyme-linked immunoassay (Bio-Rad). The absorbance values obtained were evaluated using Sigma Plot software and the binding strength of an antibody was calculated. For this purpose, the extinction value measured in each case was plotted against the corresponding antibody concentration and the resulting curve was fitted using the following non-linear regression.

| Binder | mean fluorescence intensity (MFI) [1] | mean fluorescence intensity (MFI) [2] | other results |
| --- | --- | --- | --- |
| B1 | 36.5 | 28.4 |  |
| B2 | 31.3 | 24.6 |  |
| B3 | 37.9 | 29.4 |  |
| B4 | 38.5 | 30 |  |
| B5 | 34.6 | 25.7 |  |
| B6 | 42.2 | 27.9 |  |
| B7 | 32.2 | 29.7 |  |
| B8 | 31.6 | 25 |  |
| B9 | 36.5 | 24.1 |  |
| B10 | 41.4 | 24.6 |  |
| B11 |  |  | binding result [3]: binds |
| B12 |  |  | binding result [4]: no binding; binding result [5]: no binding |
| B13 |  |  | Kd [6]: ~22.4 nM |
| B14 |  |  | Kd [6]: ~2.7 nM |
